The assay addresses SOD1-His (not stated (human or mouse cDNA cloned)) (UniProt P00441).

Chain of YWHAE protein purified by His tag from Pichia pastoris (P62258 whole entry): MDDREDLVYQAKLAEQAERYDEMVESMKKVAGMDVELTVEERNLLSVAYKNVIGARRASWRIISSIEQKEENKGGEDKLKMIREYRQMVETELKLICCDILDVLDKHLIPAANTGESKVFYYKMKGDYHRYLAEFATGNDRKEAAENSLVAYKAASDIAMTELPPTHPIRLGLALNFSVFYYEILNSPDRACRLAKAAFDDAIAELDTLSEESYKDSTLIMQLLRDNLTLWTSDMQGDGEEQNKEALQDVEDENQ
Chain of SOD1-His (not stated (human or mouse cDNA cloned)) (P00441 whole entry): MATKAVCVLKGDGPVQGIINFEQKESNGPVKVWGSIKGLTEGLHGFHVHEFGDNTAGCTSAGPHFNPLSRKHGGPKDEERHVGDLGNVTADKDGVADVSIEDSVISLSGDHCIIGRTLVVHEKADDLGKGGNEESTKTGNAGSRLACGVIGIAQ

As to “YWHAE protein purified by His tag from Pichia pastoris (from UniProt P62258 1-255) (natural protein)”, the SOD1 activity of purified SOD1 incubated with purified YWHAE at 1:1 for 0-15 h at 4 °C in SOD1 activity assay buffer, against SOD1 plus buffer; value at 4 h amounted to 40%.

The values above are taken from PMC9966940.
